According to patent US20150330993A1:

Target: purified human dimeric IgA (dIgA) (human)
Assay: ELISA, dIgA held on anti-IgA coated plates, detected with R/HpIgR, anti-secretory component and anti-mouse HRP

chimeric rabbit/human polymeric Ig receptor R/HpIgR (rabbit domain 1, human domains 2-5) (from UniProt P01833 1-638)
lowest dIgA concentration tested, still detected: 31 ng/mL
